The subject of one series is normal T cells. Briefly: Phagocytosis of normal T cells by macrophages. The series is classed as cell-based, human. The conditions noted are these: FIG. 10.
Series [1] deals with macrophages. Put plainly: Toxicity on macrophages (viability). The settings on record: FIG. 9; increasing doses.
For series [2], the system named is macrophages. Briefly: Phagocytosis of macrophages by macrophages (autophagocytosis). The conditions noted are these: FIG. 11A.
Protocol: (§1) Phagocytosis assays. In vitro phagocytosis assays were performed by 1-hour coculture of 2,5×10^4 human primary M1 or THP1 macrophages labeled with CellTrackerGreen (ThermoFisher, Waltham, Mass., USA, 1/2000, 20 min at 37° C.) and 5×10^4 leukemic cells labeled with CPD (ThermoFisher, 1/2000 10 min at 37° C.) in serum-free RPMI. Phagocytosis was analyzed by a CytoFLEX flow cytometer (Beckman, Brea, Calif., USA) and analysis using FlowJo software (TreeStar, BD Life Sciences Franklin Lakes, N.J., USAs). The phagocytic index was calculated as follows: fold change of percentage of CPD+ cells in CTG+ macrophages compared to the one detected by treatment with istotype control multiplied by the fold change in geometric mean in APC fluorescence (CPD) in CTG+ macrophages compared to the one detected with isotype control.

Protocol for normal T cells: as §1

For the substance “5F9: reference pro-phagocytic anti-CD47 antibody”, the “phagocytosis of normal T cells by macrophages” value in the series on normal T cells was “A similar result is obtained”. In the series on macrophages [1], the “overall number of live macrophages” value is given as “drastically reduced”. The autophagocytosis of macrophages result in the series with macrophages [2] is reported as “have an autophagocytosis activity”.

The record behind these values is patent publication US20230227565A1, “Method for Treating CD127-Positive Cancers by Administering an Anti-CD127 Agent” (OSE IMMUNOTHERAPEUTICS, priority 2021, published 2023).
